How the values were obtained:
[1] = biological target: TDP-43 M323K (LCDmut) M323K (mouse) (UniProt Q921F2); assay: EMSA; design: unit not given beside the values; details: 5% acrylamide gel, protein 0.25-2 ug with 32P RNA in unspecified binding buffer, salt, pH and temperature not given
TDP-43 WT (mouse) = TDP-43 WT (mouse) (UniProt Q921F2); assay: EMSA; design: unit not given beside the values; details: 5% acrylamide gel, protein 0.25-2 ug with 32P RNA in unspecified binding buffer, salt, pH and temperature not given

## UGUGUGUGUGUG [(UG)6 RNA]
[1]
  Kd: 32200
TDP-43 WT (mouse)
  Kd: 27600

Source: PMC5983119
